Experimental findings from the DeepSol protein solubility set are described below.

This series can be described thus: soluble on expression in E. coli; label from the status in PepcDB or PDB records.
As to “MSTPVDLTEGLDGAKLAVTVLMIRDSPTGLEVYVQERVSSMPTFPNATVFPGGGVDPRDFELDGVESEHETFGGPSLMHWARSLGTNRNRARALLFAAARELFEETGTLLATHSDGTPIPDATQYHPQRLALESHRLSLSQVLARHDLTLRSEWLRPSTRWVSPETDEKRFDMFAFVAVQPPGQEPDGNTREAASTGWFSPSLILDGWRAGLIRLVIPTWAQLLILSRFDCVRDVLEFLRRADMTPIIGDPVDDPRFEEFYSFTPPERF”, the “soluble on expression in E. coli” value is reported as “not soluble”.
The entry for “MGSDKIHHHHHHQIAPAPSTGYNCDLALYSVPQANLLARSLQGDTVADQQYRQLVRELAMELRNCRQQVWPRKMAIWVRLYSCDLRPGGLDSLFDGLQALGYNEVFIETFYDGRVLLPAADNPTVWPSVVAEPGLERVDLLAEAIRKGRERGMSVYAWLFTLNYGYSYSQRSDRQDTLARNGRSESSLEIVSGGAQVFVDPFNPVARQDYQTLLRSVLSRRPDGVLFDYVRYPRGTGAASVMTKVADLLIHTTAARQAWINQLNTPAGQALLTEYLDTGRLSPSDRNQLVLLLGDRLKELNLRQDVDPLWSLAVYHAWRGVVEFVDEAVGTVAQAGLPSGAVFFPFGNARVGQQGWDSRMQPWDRFPNSMEYHPMSYALCGDRHDCVMAEVQRVLEAKPNSIVQPAIAGTWGANFNAHLPLEQRMAALRSTFGDRIDRVSHFSLAWMDPQGERQRQRCRL” is “not soluble”; for “MGSDKIHHHHHHMEYQTRQWLEEALFDLLATKKSLHNISIAELSEHAQIARRTFYRYYHSKEQVLTNYLDRLIQDYIIELQTEKLTNFEDLVNLFFQYWSQYTESLKILQEANLLVLILQRYYDKLPAAYTTVMAPWHITNSDQRQISYDSRFIIGGLYSIFDEWLKTDHQTMPVNELVTTALNTIKRMKDS” it is “not soluble”; for “ASITGDALVALPEGESVRIADIVPGARPNSDNAIDLKVLDRHGNPVLADRLFHSGEHPVYAVRTVEGLRVTGTANHPLLCLVDVAGVPTLLWKLIDEIKPGDYAVIQRSAFSVDCAGFARGKPEFAPTTYTVGVPGLVRFLEAHHRDPDAKAIADELTDGRFYYAKVASVTDAGVQPVYSLRVDTADHAFITNGFVSHN” it is “soluble”.
The entry for “MQEKAVVLDDQMIRRALTRISHEIVERNKGVDNCVLVGIKTRGIFIAQRLAERIGQIEGKEMEVGELDITLYRDDLTLQSKNKEPLVKGSDIPVDITKKKVILVDDVLYTGRTVRAAMDALMDLGRPSQIQLAVLVDRGHRELPIRADYVGKNIPTSSEERIEVDLQETDQQDRVSIYDK” is “soluble”; for “MGSDKIHHHHHHMDSLLMNRRKFLYQFKNVRWAKGRRETYLCYVVKRRDSATSFSLDFGYLRNKNGCHVELLFLRYISDWDLDPGRCYRVTWFTSWSPCYDCARHVADFLRGNPNLSLRIFTARLYFCEDRKAEPEGLRRLHRAGVQIAIMTFKDYFYCWNTFVENHERTFKAWEGLHENSVRLSRQLRRILLPLYEVDDLRDAFRTLGL” it is “not soluble”.
The entry for “MTFAWGRGSHGGAGMRIVQITDTHFSPTKAHFNGNWAPLAAWIEQSGADLVIHTGDLSVDGADRDDDIAFCMDLMREISAPMLLVPGNHDVGHLPGSLQPVNAGRLERWRRLVGPDYWMEDAGSWRLIGLDSLLMGFDDAEEEAQFDWLRTVLESRGGRRVALFAHKPLFVDAPGEGDTGYWSVRPAQRQRLYDLIATHDVALFASGHLHRAWQGKYENTSLVWGPSAALEHHHHHH” is “soluble”.
On to “MYPSDFASALESLSLKEMRQAIHRLLDIRDENTWMLFGTLPFYACSPDEDDQKLLRRLRAAKNVTVRNDPDGRSRLNVNIFDGNIIVTDFGDTPPLGNIQTDSLPSAYEKWRETKLAKELSCHCPNVRCLGPNVLVKNSYYQDTDFTKRQARS”, for which the “soluble on expression in E. coli” value is reported as “not soluble”.
Turning to “MEYGCQPNVLKKTILKMVKRRIHVEGAKKAVNEALLNSQAKAAEEICRIAYESPGGVVFLGAPTGAGKTEVFMAPLLASFASKRPIAARGFLVEPMHSLIKAMVDRLKTSIETLGVSEDHGETVQPTFLYTAPITVTTPDTYFYGFAASRVYRILTHEGVETGRFSMPVGLQATSYTVFDEAHLVQDEVFLSPRLLSLVVAALARAGGLIVVSSATLPSYYKTVIREKLGDWRVEEV”, the “soluble on expression in E. coli” value is “not soluble”.
The entry for “MSLKILIPTAKEMNTDLPSIEAIPLKPESQTVLDALALYSASQLESFYKVSAEKAAEEFQNIQALKRQTAQHYPALKLFDGLMYRNIKRDKLTEAEQDYLENHVFITSALYGVVPALSPMAPHRLDFLMKLKVAGKTLKSHWKAVYDEALKKEEVIFSLLSSEFETVFSKEIRAKMVTFKFMEDRGGQLKIHSTISKKARGAFLTALIENQVQTVGEARRLNFAGFVYREDLSQPQGLVFVKEVEGHHHHHH” is “soluble”; for “MNLSLHYNLDNRNAMKPHTLVKRSSSQVTDQAVEVIHERIQQGFYPVGSALPSQRELSAELGISRASLREALTRLAALGLLNIMAGKGAYVTAIESQPVEQWNIQFKISLKDFYQLRYILEGFSALLACEYISENDLVQLNTHFEQLESAIQQHNWQEAAENDFAFHRHIIDLSHNQSIIQSLKKQTEWMKQSQILPFVQPNLAYKTIQEHEQILQALIKRDGLMAEKAMRQHIIGAAQRAGVYFSSHS” it is “not soluble”; for “MTTLTQVRPASVFVVSGGAKGITAQCVIELAQHQPCRFILLGRSEVIENEPDFARDCVEESVLKKAIMQHLLAQGEKPTPMSVQKVYHKIVSSREIKATLEAIAATGSQVEYIDVDVTNVAELRQKLADVGKITGIIHGAGNLADKLIEKKTDQDFEKVYTAKVQGLENLLSCVDANQLEHLVLFSSVAGFYGNMGQSDYAIANEILNKSAHLIKQNYPQCHVVAINWGGWDSGMVTPELKKAFAERGIDIIPVDVGTKMLVNELHPSHHDSTQVVIGSPIIPAPGNIDPQLRSYRIRRRMTVEANPFLLDHVIAGTPVLPATCGMSWMINACEECYPGYRYFRCQDFKILKGITFNDKVASEHILEIQEVAKHGSESIEFKTKVLSKTPEGKIHYHFSAHITIVRELPAAPVYESLDMTEDHTIGAIGKDFYQKGGLSLFHGISFQQITRVLNINSQKITVECCWAEIPLETQGQFPVKWHNPYATDLSTQPLWLWLSHVHQEVCLPGQITKSEQFRAIPRNKPFYVSCEIEHKTPSGVTADIILHDREGKIYFRIYQAKAIIAPMNLHLEHHHHHH” it is “soluble”.
The entry for “MRPEERRRHILELLRQRERISVDELARTLSTSQETIRRDLAALAEQGLVSKFHGGAALPPSGEHENAFQTRMNEHAQEKRAVARYAAGLFGPGDSIFIDTGTTTLLFARELARQSHLTVITNSLLIAGSVGASGNRAFMIGGEYRPESEQNVGALAIEQIARFNAEHAVITVGALNGDGAMDFSIEEAEIARAMIAQARQLTVIADSSKLGRRALFQVFPLSRINRLVVDRKPTGELWEALQQARVEVHEAPLRTPQALEHHHHHH” is “not soluble”.
On to “MFNCLTKLVILVCLKYVAKALLNRSTGLIMKDKPEGVHHIKSCSDSSSRIWYSLWMNIAFCGGLGPTSIFDPCFLTSSAPSPPSAPALAIPAAAPPLPTSVPAGAGVEAGAGAETVSSSLMIFSSFFLYN”, for which the “soluble on expression in E. coli” value was “soluble”.
As to “MKKLAVKALLFIMGTMLYSAPTYEYRRELREGARGKWTNLRQHLNSGTRLEKELTKVDKQIDKKVNEIQEIEDLLFRIEQYKAANNIR”, the “soluble on expression in E. coli” value is reported as “not soluble”.
To “MLTRGFTSIGKIASRGLSSTFYQDAFQLSDQLTEDERSLMLSAREYCQERLLPRVTEAYRTEKFDPSLIPEMGSMGLLGAPYQGYGCAGTSTVGYGLIAREVERVDSGYRSTMSVQTSLVIGPIYNYGSEDQKQKYIPDLASGKKIGCFGLTEPNHGSNPGGMETKATWDETTKTYKLNGSKTWISNSPVSDVMVVWARSARHNNKIKGFILERGMKGLTTPKIEGKLSLRASITGQIAMDDVPVPEENLLPNAEGLQGPFGCLNNARLGIAWGALGAAEECFHLARQYTLDRQQFGRPLAQNQLMQLKMADMLTEISLGLQGCLRVSRLKDEGKVQSEQISIIKRNSCGKALEVARKARDMLGGNGIVDEYHIMRHMVNLETVNTYEGTHDVHALILGRAITGLNGFC” belongs “not soluble”; to “MGSDKIHHHHHHMHMAAKRGRTAQRLELGLQLRQLRENCDGGDRGVGLTRKQAVQGLRISEASLQRIETGSLNFRFVGDLRKLLTKYGVTDEDVVDSLISLNRESNQQDWLTQYRGLMPSGMPGFVGLEPEAHAMKAYHPTLVYGLLQTERYARAVHEVQKPIEEYTTEFIRSSVELRMKRQEVLTRESPVKLHVILGEAALRYPIGGAEVMREQCARIEELSGWDHITVQVLPFRPSYRSINDFAILDFGNNLPPRVQADSAWGSVSTSDKPREVDRFSRRFDTMTASALPPEDTPEFLHRLEREL”, “not soluble”.
The entry for “MGSDKIHHHHHHMLKMPSLKAVKSFVAAAKYQSFTRAAEALCVTQAAISRQIRELEAYMGVELFKRVGRAVELTEAGSAFFDAAQLSFVNISQAAKRVGAYKAGKSEVTLCCSAAFAALWLSPKLPGFFNDNQDIDLNLISTQNFLSMEPGVTPDIFITKFSSVHSGYRSYPLFHDVIFPVCTPRYRDEHPELATLEGLRDSALLNLSPYGRAQVAEHIDWGVWLAFHDTDIEKRTHNRPHVFSANDYNVVINMTLANQGVALGWSHLVAESLEKGALVRPIQKEVVHKDSQHYLAFKVDRESDRGCCRLRDWLLSHFA” is “not soluble”.
For “MGHHHHHHGGHMSLAAQELLRDAFTRLIEHVDELTDGLTDQLACYRPTPSANSIAWLLWHSARVQDIQVAHVAGVEEVWTRDGWVDRFGLDLPRHDTGYGHRPEDVAKVRAPADLLSGYYHAVHKLTLEYIAGMTADELSRVVDTSWNPPVTVSARLVSIVDDCAQHLGQAAYLRGIAEGGS”, the “soluble on expression in E. coli” value is “soluble”.
To “SLPKLHMFYLGGNAGRSNIEVHDIQFAVCDDYREAVPALKAAWFGDADKIHIDGWQVVEWADGYDIAVSETPKTKMPSENAPRLYFANVGGYRAGQLAEAHAFGLFAAATPAEAKQKALQTLLTDSYVQQHKDNLKDVDNLLALDRIGNFHIRLTPNPHGKPAEIGFQGYLPI” belongs “soluble”; to “MSLERLRVAAYCRVSTDSEDQLNSYKSQVQYYTDMIKKNKEWVLADIYADEAITGTQVTKREDFQRMINDCMNGEIDMVITKSISRFARNTLDTLKYVRMLKERNIAVYFEDEKINTLTMDGELLLVVLSSVAQQEVENISANVKKGLKMKMKRGELVGFQGCLGYDYHPEDKTITVNQEEAEIVRYIFNRYVDGAGGSVIGQELENLGYKTKYGSSTWAPSTVIGIIKNEKYKGDILLGKTFTVDPISKRRLENMGEEDKFYMKDHHEPIISEEVFEKAQEILNRRNKNREGHHHHHH”, “soluble”; to “MGSDKIHHHHHHMYVENACYQKAILPEHVGNALIESLPKKLTDEELVDKLANYPKCLTEDTQNDPEIRAEYLTRIKRLRQPQLVYFDVFRAVEIAIKDGYSAKNPLSPTTMNYLHYSLEDRPIIEPNTGFFKPKGCGITIIGESGVGKTSMLEQVLSIYPDVIKHQSYSGMSLPLTQVVWLKVDCPDDSSVKGLCHRILDEIDRKLDIKDTKPQNTIALLIKQIEAKMKSNYLGILVIDEMQNLNTAKAGGAERLLGFLHNLMNNLGIPILFCANPPFDKLLSKTLKAARRAESGGYFDIGLLKNSEDEWGLFVDELWKLQWTNVQTPLTQDLSDRLFNLSVGNMDLAVRIFYASQRAVIGSLNERITTDVLDKGASIAIRASKSTTDELRLSLLKRKNESKKETPNNEASEEAKVITESKGKFVTIPGDLSRPHHPEFAERITELQYEDDLHALIEDPALIQRASEEEHPLDMLKSAGLFCEDPLKTFG”, “not soluble”.
